Measured values from patent publication US7090834B1, “Vascular endothelial cell growth factor variants and uses thereof” (Genentech, Inc., priority 1999, dated 2006).

Key:
Flt-1 receptor [1] = test: RIA assay, binding to FLT-1 receptor; conditions: Example 8, FIG. 8B; read-out: affinity for Flt-1 (RIA)
Procedure: Various assays were conducted to examine the properties and biological activities of the I43A/I46A/Q79A/I83A Flt-sel variant. For example, quantitative binding measurements were carried out using a soluble radio-immuno receptor-binding assay (RIA), as described in Example 6 above.
Target sequence in this assay (P17948 27-331 limits assumed): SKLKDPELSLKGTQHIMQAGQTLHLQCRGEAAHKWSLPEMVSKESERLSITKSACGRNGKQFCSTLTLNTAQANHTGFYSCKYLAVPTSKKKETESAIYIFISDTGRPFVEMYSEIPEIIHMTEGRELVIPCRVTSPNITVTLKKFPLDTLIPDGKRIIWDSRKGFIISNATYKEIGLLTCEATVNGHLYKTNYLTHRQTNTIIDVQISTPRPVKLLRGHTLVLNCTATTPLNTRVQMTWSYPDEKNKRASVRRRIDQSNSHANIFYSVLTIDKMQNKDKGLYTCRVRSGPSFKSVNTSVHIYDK

[2] = target: KDR receptor on HUVEC cells (human, UniProt P35968 20-1356); test: cell-based or functional assay
Flt-IgG = target: T1, Flt-IgG (UniProt P17948 27-758, limits assumed); test: competition ELISA vs biotinylated native VEGF for Flt-IgG
T1 construct: also called chimeric Flt-human Fc molecule; not shown: human IgG Fc
Procedure: (§1) Receptor binding assays were performed in 96-well immunoplates (Maxisorp, Nunc-Immunoplate, Nalge Nunc International, Rochester, N.Y.). Each well was coated with 100 μl of a solution containing 2 μg/ml of rabbit F(ab')2 to human IgG Fc (Jackson ImmunoResearch, West Grove, Pa.) in 50 mM carbonate buffer at pH 9.6 and incubated at 4° C. overnight. The supernatant was then discarded, the wells were washed three times in washing buffer (0.05% Tween 20 in PBS), and the plate was blocked (150 μl per well) with block buffer (0.5% BSA, 0.01% thimerosal in PBS) at room temperature for one hour. The supernatant was discarded, and the wells were washed.
(§2) The wells were filled with 100 μl of a solution containing Flt-IgG (a chimeric Flt-human Fc molecule) at 50 ng/ml in assay buffer (0.5% BSA, 0.05% Tween 20 in PBS). The wells were incubated at room temperature for 1 hour and then washed three times in wash buffer (0.05% Tween 20 in PBS).
(§3) Aliquots of the mixture (100 μl) were added to the precoated microtiter wells and the plate was incubated for 2 hours at room temperature. […] The wells were then incubated with 3, 3', 5,5'-tetramethyl benzidine (0.2 g/liter, Kirkegaard & Perry Laboratories, Gaithersburg, Md.) for about 10 minutes at room temperature. Absorbance was read at 450 nm on a Vmax plate reader (Molecular Devices, Menlo Park, Calif.).

KDR (1-3) = target: T2, KDR (1-3) (UniProt P35968 20-327, limits assumed); test: competition ELISA vs biotinylated native VEGF (8-109) for KDR (1-3)
T2 construct: domain: domains 1 to 3; Genentech reagent; also called KDR (1-3) monomer; domains 1 to 3 of KDR
Procedure: as §1, with “containing 8” for “containing 2”, “of a monoclonal antibody” for “of rabbit F(ab')2”, “to KDR known as MAKD5 (Genentech, South San Francisco, Calif.)” for “to human IgG Fc (Jackson ImmunoResearch, West Grove, Pa.)”, “was” for “was then”
as §3, with “of this” for “of the”, “for 1 hour” for “for 2 hours”, “(0.2 gram/liter;” for “(0.2 g/liter,”
(§4) Titration curves were fit with a four-parameter nonlinear regression curve-fitting program (KaleidaGraph, Synergy Software, Reading, Pa.).

KDR receptor = KDR receptor (Homo sapiens, UniProt P35968); test: KDR receptor binding ELISA (inhibition of biotinylated native VEGF (8–109) binding); conditions: second figure of the cell, variant midpoint concentration divided by that of native VEGF
Procedure: as §1, with “containing 8” for “containing 2”, “of a monoclonal antibody” for “of rabbit F(ab')2”, “to KDR known as MAKD5 (Genentech, South San Francisco, Calif.)” for “to human IgG Fc (Jackson ImmunoResearch, West Grove, Pa.)”, “was” for “was then”
as §3, with “of this” for “of the”, “for 1 hour” for “for 2 hours”, “3, 3′, 5,5′-tetramethyl” for “3, 3', 5,5'-tetramethyl”, “(0.2 gram/liter;” for “(0.2 g/liter,”
as §4

Flt-1 receptor [3] = test: Flt-1 receptor binding ELISA (inhibition of biotinylated native VEGF binding to Flt-IgG); conditions: for Relative Binding Affinity, FLT-1 Receptor: concentration at midpoint absorbance: first figure of the cell, Flt-IgG; for Relative Binding Affinity, FLT-1 Receptor: ratio to native VEGF (8–109): second figure of the cell, fold less binding than native VEGF
Procedure: as §1, with “F(ab′)2” for “F(ab')2”
as §2
as §3, with “3′, 5,5′-tetramethyl” for “3', 5,5'-tetramethyl”
as §4
Target sequence in this assay (P17948 27-327 limits assumed): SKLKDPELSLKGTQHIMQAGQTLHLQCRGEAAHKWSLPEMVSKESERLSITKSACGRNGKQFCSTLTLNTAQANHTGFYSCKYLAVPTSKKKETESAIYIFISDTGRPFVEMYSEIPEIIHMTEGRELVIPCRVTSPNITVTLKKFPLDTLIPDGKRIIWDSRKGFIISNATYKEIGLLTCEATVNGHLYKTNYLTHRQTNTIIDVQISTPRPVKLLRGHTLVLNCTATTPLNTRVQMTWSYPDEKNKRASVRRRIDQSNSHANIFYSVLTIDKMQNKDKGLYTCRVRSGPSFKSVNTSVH

[4] = target: gD-KDR receptor on CHO cells (UniProt P35968 20-1356); test: cell-based or functional assay

T1 sequence (P17948 27-758 limits assumed): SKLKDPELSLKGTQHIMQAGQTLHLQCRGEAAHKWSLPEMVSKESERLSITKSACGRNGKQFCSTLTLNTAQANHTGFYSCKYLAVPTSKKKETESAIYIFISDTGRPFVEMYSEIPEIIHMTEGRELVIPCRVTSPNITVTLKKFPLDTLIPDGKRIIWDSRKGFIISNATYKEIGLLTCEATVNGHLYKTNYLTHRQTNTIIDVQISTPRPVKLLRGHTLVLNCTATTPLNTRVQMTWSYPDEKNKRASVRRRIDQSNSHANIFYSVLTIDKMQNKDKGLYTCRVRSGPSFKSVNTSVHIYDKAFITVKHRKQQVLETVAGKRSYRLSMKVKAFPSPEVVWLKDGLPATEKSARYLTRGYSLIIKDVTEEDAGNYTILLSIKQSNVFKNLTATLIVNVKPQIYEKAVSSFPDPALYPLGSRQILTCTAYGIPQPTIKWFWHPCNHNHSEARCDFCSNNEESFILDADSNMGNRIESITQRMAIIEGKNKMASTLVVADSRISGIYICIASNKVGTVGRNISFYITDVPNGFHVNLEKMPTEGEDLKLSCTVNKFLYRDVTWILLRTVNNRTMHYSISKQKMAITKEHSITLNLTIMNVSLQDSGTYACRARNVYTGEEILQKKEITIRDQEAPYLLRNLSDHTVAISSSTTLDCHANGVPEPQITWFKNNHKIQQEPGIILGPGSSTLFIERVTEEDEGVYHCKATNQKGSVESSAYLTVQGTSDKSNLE
KDR receptor, sequence (P35968 20-327 limits assumed): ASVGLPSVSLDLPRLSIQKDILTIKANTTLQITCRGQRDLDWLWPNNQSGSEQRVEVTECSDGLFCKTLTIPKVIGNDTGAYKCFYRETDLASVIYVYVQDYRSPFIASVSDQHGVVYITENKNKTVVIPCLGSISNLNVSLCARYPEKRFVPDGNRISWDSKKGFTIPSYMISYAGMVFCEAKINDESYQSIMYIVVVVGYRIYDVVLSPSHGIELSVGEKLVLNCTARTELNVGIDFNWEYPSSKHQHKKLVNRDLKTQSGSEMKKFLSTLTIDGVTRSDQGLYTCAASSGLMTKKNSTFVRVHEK
T2 sequence (P35968 20-327 limits assumed): as above
KDR receptor on HUVEC cells, sequence (P35968 20-1356): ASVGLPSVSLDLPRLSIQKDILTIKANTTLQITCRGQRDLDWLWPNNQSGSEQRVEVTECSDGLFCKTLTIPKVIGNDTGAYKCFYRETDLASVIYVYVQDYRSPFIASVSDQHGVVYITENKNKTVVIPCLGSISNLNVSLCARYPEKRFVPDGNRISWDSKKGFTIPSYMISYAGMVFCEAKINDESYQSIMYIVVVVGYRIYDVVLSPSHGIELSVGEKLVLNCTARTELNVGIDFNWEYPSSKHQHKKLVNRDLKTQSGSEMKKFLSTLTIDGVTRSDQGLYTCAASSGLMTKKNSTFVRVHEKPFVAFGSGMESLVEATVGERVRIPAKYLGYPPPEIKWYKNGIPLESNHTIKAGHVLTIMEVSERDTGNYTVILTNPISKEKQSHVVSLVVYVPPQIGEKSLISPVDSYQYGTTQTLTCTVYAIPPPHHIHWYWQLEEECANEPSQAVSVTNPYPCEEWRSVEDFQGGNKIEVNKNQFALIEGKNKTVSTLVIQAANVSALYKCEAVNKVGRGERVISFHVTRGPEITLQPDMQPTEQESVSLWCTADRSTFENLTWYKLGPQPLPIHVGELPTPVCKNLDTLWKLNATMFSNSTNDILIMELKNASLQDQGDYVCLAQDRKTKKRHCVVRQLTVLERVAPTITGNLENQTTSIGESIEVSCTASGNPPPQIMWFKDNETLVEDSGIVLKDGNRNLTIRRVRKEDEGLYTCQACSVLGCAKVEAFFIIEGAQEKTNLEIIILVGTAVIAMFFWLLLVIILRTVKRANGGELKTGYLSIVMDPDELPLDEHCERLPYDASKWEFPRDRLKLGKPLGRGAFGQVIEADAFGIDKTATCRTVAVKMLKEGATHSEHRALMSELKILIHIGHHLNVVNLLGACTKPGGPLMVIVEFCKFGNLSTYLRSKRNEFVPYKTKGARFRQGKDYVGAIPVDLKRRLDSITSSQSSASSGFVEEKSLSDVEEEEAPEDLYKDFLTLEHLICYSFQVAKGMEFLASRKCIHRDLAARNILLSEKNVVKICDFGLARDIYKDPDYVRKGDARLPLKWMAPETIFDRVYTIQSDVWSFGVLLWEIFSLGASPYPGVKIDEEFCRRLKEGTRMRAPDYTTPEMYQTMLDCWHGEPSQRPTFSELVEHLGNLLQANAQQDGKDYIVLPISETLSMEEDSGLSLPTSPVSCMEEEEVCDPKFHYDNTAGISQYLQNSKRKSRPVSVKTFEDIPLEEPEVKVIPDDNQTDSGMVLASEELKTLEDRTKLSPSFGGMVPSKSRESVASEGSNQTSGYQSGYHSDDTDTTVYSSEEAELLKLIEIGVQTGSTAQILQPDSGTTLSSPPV

Native VEGF (8–109): truncated native VEGF comprising amino acids 8 to 109 of the 165-amino acid vascular endothelial cell growth factor [reference compound]
Kd (Flt-1 receptor [1]): 0.4 nM

B1: LK-VRB-2f (ligand, human, UniProt P15692-4 27-191, looked up)
chain: APMAEGGGQNHHEVVKFMDVYQRSYCHPIETLVDIFQEYPDEIEYIFKPSCVPLMRCGGCCNSEMRECVPTEESNITMQIMRIKPHQGQHIGEMSFLQHNKCECRPKKDRARQENPCGPCSERRKHLFVQDPQTCKCSCKNTDSRCKARQLELNERTCRCDKPRR
Endothelial Cell Proliferation Activity (HUVEC, 3H-thymidine) [2]: 0.1 ratio to native VEGF (8-109)

B2: LK-VRB-8s* (ligand)
chain: APMAEGGGQNHHEVVKFMDVLQRSYCHPIETLVDIFQEYPDEIEYIFKPSCVPLMRCGGCCNSEMRECVPTEESNITMQIMRIKPHQGQHIGEMSFLQHNKCECRPKKD
relative binding affinity (ratio to native VEGF (8-109)) (Flt-IgG): > 21000 ratio
relative binding affinity (ratio to native VEGF (8-109)) (KDR (1-3)): 0.5 ratio
Relative Binding Affinity, KDR Receptor: ratio to native VEGF (8–109) (KDR receptor): 0.5 nM/0.5
Endothelial Cell Proliferation Activity (HUVEC, 3H-thymidine) [2]: 0.5 nM
Endothelial Cell Proliferation Activity (HUVEC, 3H-thymidine) (ratio to native VEGF (8-109)) [2]: 1
Relative Binding Affinity, FLT-1 Receptor: concentration at midpoint absorbance (Flt-1 receptor [3]): beyond the sensitivity of the ELISA assay
Relative Binding Affinity, FLT-1 Receptor: ratio to native VEGF (8–109) (Flt-1 receptor [3]): />21000

B3: LK-VRB-2s* (ligand, human, UniProt P15692-4 27-135, looked up)
chain: APMAEGGGQNHHEVVKFMDVYQRSYCHPIETLVDIFQEYPDEIEYIFKPSCVPLMRCGGCCNSEMRECVPTEESNITMQIMRIKPHQGQHIGEMSFLQHNKCECRPKKD
Endothelial Cell Proliferation Activity (HUVEC, 3H-thymidine) [2]: 0.1 ratio to native VEGF (8-109)

B4: LK-VRB-9s (ligand, human, UniProt P15692-4 27-135, looked up)
chain: APMAEGGGQNHHEVVKFMDVYRRSYCHPIETLVDIFQEYPDEIEYIFKPSCVPLMRCGGCCNSEMRECVPTEESNITMQIMRIKPHQGQHIGEMSFLQHNKCECRPKKD
relative binding affinity (ratio to native VEGF (8-109)) (Flt-IgG): 300 ratio
relative binding affinity (ratio to native VEGF (8-109)) (KDR (1-3)): 0.5 ratio
Relative Binding Affinity, KDR Receptor: ratio to native VEGF (8–109) (KDR receptor): 0.5 nM/0.5
Relative Binding Affinity, FLT-1 Receptor: ratio to native VEGF (8–109) (Flt-1 receptor [3]): /300

B5: LK-VRB-7s* (ligand, human, UniProt P15692-4 27-135, looked up)
chain: APMAEGGGQNHHEVVKFEDVYQRSYCHPIETLVDIFQEYPDEIEYIFKPSCVPLMRCGGCCNSEMRECVPTEESNITMQIMRIKPHQGQHIGEMSFLQHNKCECRPKKD
relative binding affinity (ratio to native VEGF (8-109)) (Flt-IgG): > 15000 ratio
relative binding affinity (ratio to native VEGF (8-109)) (KDR (1-3)): 1 ratio
Relative Binding Affinity, KDR Receptor: ratio to native VEGF (8–109) (KDR receptor): 1 nM/1
Endothelial Cell Proliferation Activity (HUVEC, 3H-thymidine) [2]: 1 ratio to native VEGF (8-109)
Relative Binding Affinity, FLT-1 Receptor: concentration at midpoint absorbance (Flt-1 receptor [3]): beyond the sensitivity of the ELISA assay
Relative Binding Affinity, FLT-1 Receptor: ratio to native VEGF (8–109) (Flt-1 receptor [3]): />15000

B6: LK-VRB-3s (ligand, human, UniProt P15692-4 27-135, looked up)
chain: APMAEGGGQNHHEVVKIEDVFKRSSCHPIETLVDIFQEYPDEIEYIFKPSCVPLMRCGGCCNDEGLECVPTEESNITMQIMRIKPHQGQHIGEMSFLQHNKCECRPKKD
relative binding affinity (ratio to native VEGF (8-109)) (Flt-IgG): 400 ratio
relative binding affinity (ratio to native VEGF (8-109)) (KDR (1-3)): 1 ratio
Phosphorylation-Inducing Activity (KIRA assay) [4]: 1 ratio to native VEGF (8-109)

B7: LK-VRB-26s (ligand, human, UniProt P15692-4 27-135, looked up)
chain: APMAEGGGQNHHEVVKFEDVLRRSSCHPIETLVDIFQEYPDEIEYIFKPSCVPLMRCGGCCNDEMRECVPTEESNITMQIMRIKPHQGQHIGEMSFLQHNKCECRPKKD
relative binding affinity (ratio to native VEGF (8-109)) (KDR (1-3)): 23 ratio
Relative Binding Affinity, KDR Receptor: ratio to native VEGF (8–109) (KDR receptor): 23 nM/23
Relative Binding Affinity, FLT-1 Receptor: ratio to native VEGF (8–109) (Flt-1 receptor [3]): />25000

B8: LK-VRB-25s (ligand, human, UniProt P15692-4 27-135, looked up)
chain: APMAEGGGQNHHEVVKFEDVLRRSSCHPIETLVDIFQEYPDEIEYIFKPSCVPLMRCGGCCNSEGRECVPTEESNITMQIMRIKPHQGQHIGEMSFLQHNKCECRPKKD
relative binding affinity (ratio to native VEGF (8-109)) (KDR (1-3)): 4 ratio
Relative Binding Affinity, KDR Receptor: ratio to native VEGF (8–109) (KDR receptor): 4 nM/4
Relative Binding Affinity, FLT-1 Receptor: ratio to native VEGF (8–109) (Flt-1 receptor [3]): />12000
